# Values quoted from earlier work in patent US20080113011A1, “Compositions and methods for enhanced mucosal delivery of interferon beta” (Nastech Pharmaceutical Company Inc., priority 2002, published 2008).
# Read-outs that look alike come from different tables or passages of the source.
# Details: anesthetized rats
substance,measurement,setting,value
human growth hormone: human growth hormone given nasally to anesthetized rats with or without N-acetyl-L-cysteine,nasal bioavailability,with N-acetyl-L-cysteine (ACS),12.2%
same,nasal bioavailability,without N-acetyl-L-cysteine,7.5%
